# Substitutions are numbered along the chain they refer to. Names and notes keep the numbering of the source.
# B1: E178A (protein)
# chain: MQLRNPELHLGCALALRFLALVSWDIPGARALDNGLARTPTMGWLHWERFMCNLDCQEEPDSCISEKLFMEMAELMVSEGWKDAGYEYLCIDDCWMAPQRDSEGRLQADPQRFPHGIRQLANYVHSKGLKLGIYADVGNKTCAGFPGSFGYYDIDAQTFADWGVDLLKFDGCYCDSLANLADGYKHMSLALNRTGRSIVYSCEWPLYMWPFQKPNYTEIRQYCNHWRNFADIDDSWKSIKSILDWTSFNQERIVDVAGPGGWNDPDMLVIGNFGLSWNQQVTQMALWAIMAAPLFMSNDLRHISPQAKALLQDKDVIAINQDPLGKQGYQLRQGDNFEVWERPLSGLAWAVAMINRQEIGGPRSYTIAVASLGKGVACNPACFITQLLPVKRKLGFYEWTSRLRSHINPTGTVLLQLENTMQMSLKDLL
# B2: E178G (protein)
# chain: B1 chain with A178G
# B3: E178K (protein)
# chain: B1 chain with A178K
# B4: E178Q (protein)
# chain: B1 chain with A178Q
# B5: L180M (protein)
# chain: B1 chain with A178E, L180M
# B6: L180S (protein)
# chain: B1 chain with A178E, L180S
# B7: A181P (protein)
# chain: B1 chain with A178E, A181P
# B8: A181T (protein)
# chain: B1 chain with A178E, A181T
# B9: A181V (protein)
# chain: B1 chain with A178E, A181V
# B10: D182A (protein)
# chain: B1 chain with A178E, D182A
# B11: D182E (protein)
# chain: B1 chain with A178E, D182E
# B12: D182V (protein)
# chain: B1 chain with A178E, D182V
# B13: D182Y (protein)
# chain: B1 chain with A178E, D182Y
# B14: Y184F (protein)
# chain: B1 chain with A178E, Y184F
# B15: Y184H (protein)
# chain: B1 chain with A178E, Y184H
# B16: Y184S (protein)
# chain: B1 chain with A178E, Y184S
# B17: K185M (protein)
# chain: B1 chain with A178E, K185M
# B18: K185N (protein)
# chain: B1 chain with A178E, K185N
# B19: K185Q (protein)
# chain: B1 chain with A178E, K185Q
# B20: K185T (protein)
# chain: B1 chain with A178E, K185T
# B21: H186D (protein)
# chain: B1 chain with A178E, H186D
# Tested on: mutant form of α-Gal A expressed in HEK-293 cells
# Assay: HEK assay (GLP HEK / Migalastat Amenability Assay): α-Gal A activity in lysates of transiently transfected HEK-293 cells incubated with or without 10 μM migalastat
# Type: cell-based, human
# Conditions: 10 μM migalastat versus baseline
# Procedure, shortened: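 HEK-293 cells transiently transfected with mutant α-Gal A and incubated with or without 10 μM migalastat; lysate activity given as nmol free 4-MU released per mg protein per hour. Values are mean±SEM.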
row,Molecule,Absolute increase (% WT)
1,B1,14.5
2,B2,18.6
3,B3,16.4
4,B4,18.3
5,B5,29.5
6,B6,35.5
7,B7,29.8
8,B8,19.2
9,B9,14.2
10,B10,31.8
11,B11,32.3
12,B12,44.7
13,B13,31.9
14,B14,31.8
15,B15,18.4
16,B16,25.2
17,B17,27.8
18,B18,22.5
19,B19,30.9
20,B20,19.0
21,B21,18.2

# Same assay, conditions: 10 μM migalastat α-Gal A activity relative to baseline
row,Molecule,Relative increase
1,B1,1.2
2,B2,1.5
3,B3,1.2
4,B4,1.3
5,B5,1.3
6,B6,3.3
7,B7,1.9
8,B8,1.4
9,B9,1.2
10,B10,1.3
11,B11,1.4
12,B12,1.6
13,B13,1.4
14,B14,1.4
15,B15,1.6
16,B16,2.7
17,B17,1.3
18,B18,12.7
19,B19,1.7
20,B20,1.2
21,B21,1.3

# Same assay, conditions: 10 μM migalastat, 5 days; percentage of baseline wild-type α-Gal A activity; mean ± SEM
row,Molecule,10 μM migalastat α-Gal A activity (% WT)
1,B1,84.8 ± 6.8
2,B2,61.7 ± 6.4
3,B3,90.9 ± 4.8
4,B4,86.4 ± 5
5,B5,122.9 ± 5.5
6,B6,50.9 ± 2.3
7,B7,61.5 ± 3.3
8,B8,71.3 ± 4.6
9,B9,93.2 ± 5.3
10,B10,133.3 ± 8.2
11,B11,117.1 ± 4.5
12,B12,124.8 ± 6.9
13,B13,116.5 ± 6.4
14,B14,109.7 ± 5.8
15,B15,48.6 ± 3.5
16,B16,40.6 ± 1.6
17,B17,102.9 ± 9
18,B18,24.4 ± 1.9
19,B19,74.5 ± 2.9
20,B20,92.6 ± 7.8
21,B21,78.2 ± 5.2

# Same assay, conditions: absence of migalastat; percentage of baseline wild-type α-Gal A activity; mean ± SEM
row,Molecule,Baseline α-Gal A activity (% WT)
1,B1,70.3 ± 4.9
2,B2,43.1 ± 4.7
3,B3,74.5 ± 3.4
4,B4,68.1 ± 4.5
5,B5,93.4 ± 6.6
6,B6,15.4 ± 1.5
7,B7,31.7 ± 2
8,B8,52.1 ± 2.7
9,B9,79.1 ± 3.5
10,B10,101.5 ± 5.7
11,B11,84.8 ± 4
12,B12,80.2 ± 4.2
13,B13,84.7 ± 4.1
14,B14,77.9 ± 4.4
15,B15,30.2 ± 2.9
16,B16,15.4 ± 1
17,B17,75.1 ± 4.6
18,B18,1.9 ± 0.1
19,B19,43.6 ± 2.2
20,B20,73.6 ± 4.4
21,B21,60 ± 4.1

# Same assay, conditions: lysates of HEK-293 cells transfected with the mutant form, incubated 5 days in the absence of migalastat; mean ± SEM
row,Molecule,Baseline α-Gal A activity [nmol/mg/h]
1,B1,23910 ± 1511
2,B2,17470 ± 2323
3,B3,25584 ± 1225
4,B4,23272 ± 1501
5,B5,35987 ± 2266
6,B6,5625 ± 604
7,B7,10948 ± 725
8,B8,17946 ± 1002
9,B9,26667 ± 1945
10,B10,33673 ± 2886
11,B11,28082 ± 2023
12,B12,26881 ± 2166
13,B13,28377 ± 2226
14,B14,26088 ± 1334
15,B15,10980 ± 867
16,B16,5213 ± 371
17,B17,33484 ± 2151
18,B18,833 ± 38
19,B19,14992 ± 947
20,B20,32028 ± 1167
21,B21,26924 ± 2047

# Same assay, conditions: lysates of HEK-293 cells transfected with the mutant form, incubated 5 days with 10 μM migalastat; mean ± SEM
row,Molecule,10 μM migalastat α-Gal A activity [nmol/mg/h]
1,B1,29125 ± 2326
2,B2,26566 ± 4263
3,B3,31222 ± 1660
4,B4,29671 ± 1733
5,B5,47587 ± 2132
6,B6,18335 ± 964
7,B7,21274 ± 1279
8,B8,24490 ± 1576
9,B9,32358 ± 2863
10,B10,44436 ± 3828
11,B11,38956 ± 2806
12,B12,42107 ± 3524
13,B13,39247 ± 3250
14,B14,36815 ± 2009
15,B15,17894 ± 1145
16,B16,13965 ± 799
17,B17,44387 ± 2696
18,B18,10540 ± 618
19,B19,25543 ± 1463
20,B20,39805 ± 2259
21,B21,34055 ± 1657

# Reference: patent publication US11833164B2, “Methods of treating Fabry disease in patients having a mutation in the GLA gene” (Amicus Therapeutics, Inc., priority 2019, dated 2023)
